Here are results for 26 molecules from publication PMC3470569, “Probing Subunit-Subunit Interactions in the Yeast Vacuolar ATPase by Peptide Arrays” (PLoS ONE, 2012).

Ends that are not written are not given here. cellulose = not defined here

The labels stand for the following.
B1: H(271-290) (peptide, UniProt P41807 271-290, looked up)
peptide: FLDLLKLVKITIKEKVSRLC-cellulose
modifications: reading uncertain
notes: source: synthetic peptide, spotted on glass slide array (Intavis)
B2: C(321-340) (peptide, UniProt P31412 321-340, looked up)
peptide: LPPHFNIKIIAVPPKNLSKC-cellulose
modifications: reading uncertain
notes: as for B1
B3: d(51-70) (peptide, UniProt P32366 51-70, looked up)
peptide: YGNFLSSVSSESLTTSLIQE-cellulose
modifications: reading uncertain
notes: V-ATPase Vo subunit d, S. cerevisiae, residues 51-70; source: synthetic peptide, spotted on glass slide array (Intavis)
B4: F(41-60) (peptide, UniProt P39111 41-60, looked up)
peptide: QEGKTTKEEITDKFNHFTEE-cellulose
modifications: reading uncertain
notes: V-ATPase subunit F, S. cerevisiae, residues 41-60; source: synthetic peptide, spotted on glass slide array (Intavis)
B5: a(51-70) (peptide, UniProt P32563 51-70, looked up)
peptide: FQRTFVNEIRRLDNVERQYR-cellulose
modifications: reading uncertain
notes: V-ATPase Vo subunit a (gene Vph1), S. cerevisiae, residues 51-70; source: synthetic peptide, spotted on glass slide array (Intavis)
B6: a(41-60) (peptide, UniProt P32563 41-60, looked up)
peptide: FRDLNSKVRAFQRTFVNEIR-cellulose
modifications: reading uncertain
notes: V-ATPase Vo subunit a (gene Vph1), S. cerevisiae, residues 41-60; source: synthetic peptide, spotted on glass slide array (Intavis)
B7: G(71-90) (peptide, UniProt P48836 71-90, looked up)
peptide: KAEAGVQGELAEIKKIAEKK-cellulose
modifications: reading uncertain
notes: V-ATPase subunit G (Vma10p), S. cerevisiae, residues 71-90; source: synthetic peptide, spotted on glass slide array (Intavis)
B8: B(349-368) (peptide, UniProt P16140 349-368, looked up)
peptide: LTGYITEGQIFVDRQLHNKG-cellulose
modifications: reading uncertain
notes: as for B1
B9: d(21-40) (peptide, UniProt P32366 21-40, looked up)
peptide: RNGLLSNNQYINLTQCDTLE-cellulose
modifications: reading uncertain
notes: V-ATPase Vo subunit d, S. cerevisiae, residues 21-40; source: synthetic peptide, spotted on glass slide array (Intavis)
B10: d(131-150) (peptide, UniProt P32366 131-150, looked up)
peptide: GWFDTLPTLSVATDLESLYE-cellulose
modifications: reading uncertain
notes: as for B1
B11: H(221-240) (peptide, UniProt P41807 221-240, looked up)
peptide: ATDSQLATRIVATNSNHLGI-cellulose
modifications: reading uncertain
notes: as for B1
B12: a(371-390) (peptide, UniProt P32563 371-390, looked up)
peptide: LDTNHTPPTFHRTNKFTAGF-cellulose
modifications: reading uncertain
notes: as for B1
B13: D(161-180) (peptide, UniProt P32610 161-180, looked up)
peptide: EVIKVTNRRVNAIEHVIIPR-cellulose
modifications: reading uncertain
notes: as for B1
B14: d(261-280) (peptide, UniProt P32366 261-280, looked up)
peptide: DFEGVRAALANVYEYRGFLE-cellulose
modifications: reading uncertain
notes: as for B1
B15: a(131-150) (peptide, UniProt P32563 131-150, looked up)
peptide: IEVQKNDLEQYRFILQSGDE-cellulose
modifications: reading uncertain
notes: as for B1
B16: a(681-700) (peptide, UniProt P32563 681-700, looked up)
peptide: EAQQLISAMDADDAEEEEVG-cellulose
modifications: reading uncertain
notes: as for B1
B17: d(181-200) (peptide, UniProt P32366 181-200, looked up)
peptide: RNKLYKAYLEDFYNFVTEEI-cellulose
modifications: reading uncertain
notes: as for B1
B18: D(181-200) (peptide, UniProt P32610 181-200, looked up)
peptide: TENTIAYINSELDELDREEF-cellulose
modifications: reading uncertain
notes: as for B1
B19: H(331) (peptide, UniProt P41807 331-350, looked up)
peptide: SDEELRQDISNLKEILENEY-cellulose
modifications: reading uncertain
notes: V-ATPase subunit H (Vma13p), S. cerevisiae; source: synthetic peptide, spotted on glass slide array (Intavis)
B20: a(151-170) (peptide, UniProt P32563 151-170, looked up)
peptide: FFLKGDNTDSTSYMDEDMID-cellulose
modifications: reading uncertain
notes: as for B1
B21: B(421) (peptide, UniProt P16140 421-440, looked up)
peptide: GEEALSIEDKLSLEFLEKFE-cellulose
modifications: reading uncertain
notes: V-ATPase subunit B, S. cerevisiae; source: synthetic peptide, spotted on glass slide array (Intavis)
B22: H(181-200) (peptide, UniProt P41807 181-200, looked up)
peptide: DTCYVCIRLLQELAVIPEYR-cellulose
modifications: cysteine pairing not given here; reading uncertain
notes: as for B1
B23: H(91-110) (peptide, UniProt P41807 91-110, looked up)
peptide: DCKKSVQNLIAELLSSDKYG-cellulose
modifications: reading uncertain
notes: V-ATPase subunit H (Vma13p), S. cerevisiae, residues 91-110; source: synthetic peptide, spotted on glass slide array (Intavis)
B24: E(51-70) (peptide, UniProt P22203 51-70, looked up)
peptide: VRNETNNIDGNFKSKLKKAM-cellulose
modifications: reading uncertain
notes: V-ATPase subunit E (Vma4p), S. cerevisiae, residues 51-70; source: synthetic peptide, spotted on glass slide array (Intavis)
B25: a(291-310) (peptide, UniProt P32563 291-310, looked up)
peptide: TSTTLESELYAIAKELDSWF-cellulose
modifications: reading uncertain
notes: as for B1
B26: a(521-540) (peptide, UniProt P32563 521-540, looked up)
peptide: AWHGTENALLFSNSYKMKLS-cellulose
modifications: reading uncertain
notes: as for B1

The first assay addresses T1, full-length subunit H (Vma13p), N-terminal MBP fusion (S. cerevisiae, UniProt P41807 1-478).
T1 construct: V-ATPase subunit H (Vma13p), S. cerevisiae, 478 amino acids; Construct provided by the laboratory of Dr. Patricia Kane; also called MBP-H; source: E. coli, purified (amylose column; ultrafiltration or size exclusion chromatography); not shown: MBP, N-terminal, kept
T1 sequence (looked up): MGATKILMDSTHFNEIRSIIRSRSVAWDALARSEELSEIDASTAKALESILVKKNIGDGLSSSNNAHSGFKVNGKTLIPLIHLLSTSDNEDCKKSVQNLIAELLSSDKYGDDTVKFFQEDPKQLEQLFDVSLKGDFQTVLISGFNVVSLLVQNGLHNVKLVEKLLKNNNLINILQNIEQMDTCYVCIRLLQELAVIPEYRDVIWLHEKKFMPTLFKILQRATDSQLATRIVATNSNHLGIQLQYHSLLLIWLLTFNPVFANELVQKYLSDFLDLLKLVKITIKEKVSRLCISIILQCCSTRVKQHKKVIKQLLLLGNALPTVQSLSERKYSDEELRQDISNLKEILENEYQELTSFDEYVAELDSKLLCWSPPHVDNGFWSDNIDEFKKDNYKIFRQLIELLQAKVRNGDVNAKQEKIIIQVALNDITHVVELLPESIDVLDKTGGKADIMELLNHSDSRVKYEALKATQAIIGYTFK
Put plainly: peptide or protein array; 20-mer peptides linked at their C-terminal end to cellulose and spotted in duplicate on glass slides; blocked in 2% nonfat milk; purified probe at 4 µM in TBS for 1 hour at 4°C; bound probe detected through MBP or FLAG with HRP-coupled antibody (chemiluminescence); hits by ANOVA (p 0.05, Bonferroni) and HCL in MeV, score of at least 1 in 75% of the spots. The following applies: both partners purified.
For the molecule B1, the binding result is on record as “binds”. For the molecule B2, the binding result is “binds”.

As to B3, the binding result is on record as “binds”. For B4, the binding result was “binds”. The same measure, in the same setting: the result for B5 reads “binds”; that for B6, “binds”; that for B7, “binds”. Still for that read-out and setting: the result for B8 reads “binds”. For B9, the binding result is given as “binds”. The same measure, in the same setting: the result for B10 reads “binds”.

The target in another assay is T2, subunit G (Vma10p) with FLAG tag (S. cerevisiae, UniProt P48836 1-114).
T2 construct: V-ATPase subunit G (Vma10p), S. cerevisiae, 114 amino acids; also called G-FLAG; FLAG-G; source: E. coli, from the bicistronic MBP-FLAG-G / E construct, purified (amylose, PreScission cleavage of MBP, DEAE, amylose); not shown: MBP, N-terminal, cleaved
T2 sequence (looked up): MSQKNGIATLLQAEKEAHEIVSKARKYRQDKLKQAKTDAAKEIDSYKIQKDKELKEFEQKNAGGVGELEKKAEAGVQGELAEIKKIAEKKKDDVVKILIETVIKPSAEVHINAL
Described as above. The settings on record: both partners purified.
For B1, the binding result was “binds”. Turning to B11, the binding result is “binds”. For the molecule B12, the binding result is given as “binds”. As for B13, the binding result was “binds”. Regarding B8, the binding result is reported as “binds”.

Another assay has as its target T3, subunit E (Vma4p), N-terminal MBP fusion (S. cerevisiae, UniProt P22203 1-233).
T3 construct: V-ATPase subunit E (Vma4p), S. cerevisiae, 233 amino acids; also called MBP-E; source: E. coli, purified (amylose column); not shown: MBP, N-terminal, kept
T3 sequence (looked up): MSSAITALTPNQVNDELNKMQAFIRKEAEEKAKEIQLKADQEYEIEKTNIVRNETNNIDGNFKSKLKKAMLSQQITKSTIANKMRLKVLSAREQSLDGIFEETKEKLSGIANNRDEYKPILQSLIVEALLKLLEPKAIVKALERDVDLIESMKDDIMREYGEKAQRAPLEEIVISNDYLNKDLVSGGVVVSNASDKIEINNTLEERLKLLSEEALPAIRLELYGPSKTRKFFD
The assay is described as above. The settings on record: both partners purified.
For B14, the binding result is given as “binds”.

As to B15, the binding result is “binds”. Still for that read-out and setting: next, B3: “binds”; B16: “binds”; B4: “binds”. On the same count and under the same terms, the result for B17 reads “binds”; that for B7, “binds”; that for B18, “binds”.

As for B19, the binding result was “binds”. As for B20, the binding result is listed as “binds”.

On to B21, for which the binding result is reported as “binds”.

On to B9, for which the binding result is “binds”. With B10, the binding result is given as “binds”.

Another assay addresses T4, EG heterodimer (untagged subunit E with FLAG-tagged subunit G) (S. cerevisiae, UniProt P22203 1-233; P48836 1-114).
T4 construct: V-ATPase subunit E (Vma4p), S. cerevisiae, tagless; V-ATPase subunit G (Vma10p), S. cerevisiae; also called EG-FLAG; source: E. coli, co-expressed from one bicistronic plasmid, purified (amylose, PreScission cleavage of MBP, DEAE, amylose); not shown: MBP, N-terminal, cleaved; FLAG, N-terminal, kept
T4 sequence (looked up) 1: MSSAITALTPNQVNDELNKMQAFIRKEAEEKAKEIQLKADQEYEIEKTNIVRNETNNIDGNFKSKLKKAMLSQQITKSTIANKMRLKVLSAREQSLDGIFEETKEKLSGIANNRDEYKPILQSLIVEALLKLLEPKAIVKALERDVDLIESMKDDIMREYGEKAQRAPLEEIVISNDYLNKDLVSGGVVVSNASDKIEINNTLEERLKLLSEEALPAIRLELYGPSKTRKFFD
T4 sequence (looked up) 2: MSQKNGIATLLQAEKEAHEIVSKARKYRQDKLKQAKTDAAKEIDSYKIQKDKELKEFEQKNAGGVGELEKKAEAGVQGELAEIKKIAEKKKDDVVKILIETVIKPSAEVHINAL
The assay is described as above. The following applies: both partners purified.
As for B22, the binding result is on record as “binds”. For B23, the binding result is listed as “binds”. Still for that read-out and setting: the result for B24 reads “binds”; that for B25, “binds”.

For the next assay, the target named is T5, C-terminal domain of subunit H (HCT), N-terminal MBP fusion (S. cerevisiae, UniProt P41807 353-478).
T5 construct: V-ATPase subunit H (Vma13p), S. cerevisiae, C-terminal globular domain 353-478 (126 amino acids); Construct provided by the laboratory of Dr. Patricia Kane; also called MBP-HCT; source: E. coli, purified (amylose column; ultrafiltration or size exclusion chromatography); not shown: MBP, N-terminal, kept
T5 sequence (looked up): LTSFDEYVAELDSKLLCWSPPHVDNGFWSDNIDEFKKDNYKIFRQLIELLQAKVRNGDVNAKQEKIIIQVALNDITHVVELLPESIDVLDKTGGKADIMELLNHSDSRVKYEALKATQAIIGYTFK
The assay is described as above. The settings on record: both partners purified.
As to B11, the binding result was “binds”. For B2, the binding result was “binds”. B12: the binding result is recorded as “binds”. On the same count and under the same terms, the result for B5 reads “binds”. Same read-out and setting: next, B6: “binds”; B26: “binds”.
